This data set in a line: yeast display, Sf9 membrane polyspecificity reagent, FACS + sequencing; frameworks hold sequencing errors. The gist of the method: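 Sorting gates, low and high (top ~1%), were placed on anti-HA fluorescence to track expression and on streptavidin fluorescence to track reagent binding. A clone's polyreactivity label is taken from the gate it came out of. The reagent was 10% biotinylated, detergent-solubilized Sf9 membrane, applied for 1 hour at 4 °C to galactose-induced yeast display cells.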
For “QVQLVESGGGLVQAGGSLRLSCAASGRIFDYYAMGWYRQAPGKERELVASISRSGGSTYYADSVKGRFTISRDNAKNTVYLQMNSLKPEDTAVYYCAARRGYYYGRVGYWGQGTQVTVSS”, the “polyreactivity (PSR sort gate)” value is reported as “high polyreactivity”. For “QVQLVESGGGLVQAGGSLRLSCAASGRIFDYYTMGGYRQAPGKETELVAAINWSGGSTYYADSVKGRFTISRDNAKNTVYLQMNSLKPEDTAVYYCATLSYGREYGYWGQGTQVTVSS”, the “polyreactivity (PSR sort gate)” value is “low polyreactivity”.

For “QVQLVESGGGLVQAGGSLRLSCAASGRIFDYYTMGWYRQAPGKERELVAAITWIGGSTYYADSVKGRFTISRDNAKNTVYLQMKSLKPEETAVYYCYAEGTALPYRADTVGGYYYWGQGTQVTVSS”, the “polyreactivity (PSR sort gate)” value was “low polyreactivity”.

With “QVQLVESGGGLVQAGGSLRLSCAASGRIFEHNAMGWYRQAPGKEREFVAAISSSGGSTYYADSVKGRFTISRDNAKNTVYLQMNSLKPEDTAVYYCNAGSTYYERNYWGQGTQVTVSS”, the “polyreactivity (PSR sort gate)” value is listed as “low polyreactivity”. For “QVQLVESGGGLVQAGGSLRLSCAASGRIFEHNTMGWYRQAPGKERELVAAINWRGGSTYYADSVKGRFTISRYNAKNTVYLQMNSLKPEDTAVYYCNKYWWSYSYASGYNYWGQGTQVTVSS” the value was “high polyreactivity”. For “QVQLVESGGGLVQAGGSLRLSCAASGRIFEHYAMGWYRQAPGKERELVAAITSSGDSTYYADSVKGRFTISRDNAKNTVYLQMNSLKPEDTAVYYCNAVAYISYLWGYYLSTPYDYWGQGTQVTVSS” the value was “high polyreactivity”; for “QVQLVESGGGLVQAGGSLRLSCAASGRIFEHYAMGWYRQAPGKERELVASISSGDRTNYADSVKGRFTISRDNAKNTVYLQMNSLKPEDTAVYYCNALQLYGKGKRVGFGYWGQGTQVTVSS”, “low polyreactivity”; for “QVQLVESGGGLVQAGGSLRLSCAASGRIFENDMGWYRQAPGKERELVATIRSDGSTNYADSVKGRFTISRDNAKNTVYLQMNSLKPEDTAVYYCAADYLGPDYFFFSNYPYDYWGQGTQVTVSS”, “low polyreactivity”.

With “QVQLVESGGGLVQAGGSLRLSCAASGRIFEPYTMGWYRQAPGKEREFVATITASGDSTYYADSVKGRFTISRDNAKNTVYLQMNSLKPEDTAVYYCAAAPFGGYEYDYWGQGTQVTVSS”, the “polyreactivity (PSR sort gate)” value is listed as “high polyreactivity”. For “QVQLVESGGGLVQAGGSLRLSCAASGRIFERNAMGWYRQAPGKERELVAAITYNGGRTYYADSVKGRFTISRDNAKNTVYLQMNSLKPEDTAVYYCNAQSRVTRSSYRGSPRYDYWGQGTQVTVSS”, the “polyreactivity (PSR sort gate)” value is given as “low polyreactivity”.

Consider “QVQLVESGGGLVQAGGSLRLSCAASGRIFERNAMGWYRQAPGKERELVARITSGGGTYYADSVKGRFTISRDNAKNSVYLQMNSLKPEDTAVYYCAVQYLYRKYRRYDYWGQGTQVTVSS”, for which the “polyreactivity (PSR sort gate)” value is “high polyreactivity”.

For “QVQLVESGGGLVQAGGSLRLSCAASGRIFERYAMGWYRQEPGKERELVAGISISGGGTYYADSVKGRFTISRDNAKNTVYLQMNSLKPEDTAVYYCAGTFPREEYGYWGQGTQVTVSS”, the “polyreactivity (PSR sort gate)” value is “low polyreactivity”. For “QVQLVESGGGLVQAGGSLRLSCAASGRIFERYPMGWYRQAPGKERELVAGISISGGGTYYADSVKGRFTISRDTAKNTVYLQRNSLKPEDTAVSYCAATFPREEYGYWGQGTLVTVSS” the value was “low polyreactivity”; for “QVQLVESGGGLVQAGGSLRLSCAASGRIFESYAMGWYRQAPGKERELVAAISSGGGTTYYADSVKGRFTISRDNAKNTVYLQMNSLKPEDTAVYYCAADALSDEYDYWGQGTQVTVSS”, “low polyreactivity”. For “QVQLVESGGGLVQAGGSLRLSCAASGRIFEVYAMGWYRQAPGKERELVAAIRSGGNTYYADSVKGRFTISRDNAKNTVYLQMISLKPEDTAVYYCAARYKPPFGGYTYYYWGQGTQVTVSS” the value was “high polyreactivity”; for “QVQLVESGGGLVQAGGSLRLSCAASGRIFEVYAMGWYRQAPGKERELVAAITSSGGSRTYYADSVKGRFTISRDNAKNTVYLQMNSLKPEDTAVYYCAASTHRGRYKRYDYWGQGTQVTVSS”, “high polyreactivity”. For “QVQLVESGGGLVQAGGSLRLSCAASGRIFFAYAMGWYRQAPGKERELVAAIRFSGGTTYYADSVKGRLTFSRDNAKNTVYLQMNSLKQEDTAVYYFAAGRRRSSSGYGYWGKGTQVTVSS” the value was “high polyreactivity”; for “QVQLVESGGGLVQAGGSLRLSCAASGRIFFFYAMGWYRQAPGKERELVATITWTDGSTDYADSVKGRFTISRDNAKNTVYLQMNSLKPEDTAVYYCAKDEYVSRYDYWGQGTQVTVSS”, “low polyreactivity”.

In the case of “QVQLVESGGGLVQAGGSLRLSCAASGRIFFIYAMGWYRPAPGKERELVAAISSSGGTTYYADSVKGRFTISRDNAKNTVYLQMNSLKPEDTAVYYCAARSAATHWTFLFYYDFDYWGQGSQVTVSS”, the “polyreactivity (PSR sort gate)” value is “low polyreactivity”.

Regarding “QVQLVESGGGLVQAGGSLRLSCAASGRIFFKNAMGWYRQAPGKDRELVAAISWSGGRTYYADSVKGRFTISRDNAKNTVYLQMNSLKPEDSAVYYCATRYHVGKYLYGYWGQGTQVTVSS”, the “polyreactivity (PSR sort gate)” value is listed as “high polyreactivity”.

As for “QVQLVESGGGLVQAGGSLRLSCAASGRIFFKNAMGWYRQAPGKERELVAGISWSGGRTYYADSVKGRFTISRDNAKNTVYLQMNSLKPEDTAVYYCNAGSSFYRSLRYEYWGQGTQVTVSS”, the “polyreactivity (PSR sort gate)” value is listed as “high polyreactivity”. Regarding “QVQLVESGGGLVQAGGSLRLSCAASGRIFFPYAMGWYRQAPGKEREFVAAITTGCGSTYYADSVKGRFTISRDNAKNTVYLQMNSLKPEDTAVYYCAKRTYSRKFRGAYNYWGQGTQVTVSS”, the “polyreactivity (PSR sort gate)” value is listed as “high polyreactivity”. On to “QVQLVESGGGLVQAGGSLRLSCAASGRIFFPYDMGWYRQAPGKERELVAAITNSGGRTYYADSVKGRFTISRDNAKNTVYLQMNSLKPEDTAVYYCNADAYEFRWVKHYDYWGQGTQVTVSS”, for which the “polyreactivity (PSR sort gate)” value was “low polyreactivity”.

As to “QVQLVESGGGLVQAGGSLRLSCAASGRIFFRYAMGWYRQAPGKERELVASIRFRGGSTYYADSVKGRFTISRDNAKNTVYLQLNSLKPVDTAVYYCATPGSFTGTQRTGDYWGQGTQVTVSS”, the “polyreactivity (PSR sort gate)” value is listed as “high polyreactivity”. The result for “QVQLVESGGGLVQAGGSLRLSCAASGRIFFSYAMGWYRQAPGKERELVAAINGRGGSTYYADSVKGRFTISRDNAKNTVYLQMNSLKPEDTAVYYCAATAFSKGSSWKPYYYWGQGTQVTVSS” reads “low polyreactivity”; that for “QVQLVESGGGLVQAGGSLRLSCAASGRIFFVNAMGWYRQAPGKERELVAAISWSGGNTNYADSVKGRFTISRDNAKNTVYLQMNSLKPEDTAVYYCAADNSVGEYQRVDYDYWGQGTQVSVSS”, “low polyreactivity”.

On to “QVQLVESGGGLVQAGGSLRLSCAASGRIFFVNTMGWYRQAPVKERELVATISCSGGSTYYADSVKGRFTISRDNAKNTVYLQMNTLKPEDTAVYYCNRSLTGYDELGYPVPYTYDYWGQGTQVTVSS”, for which the “polyreactivity (PSR sort gate)” value is “low polyreactivity”. For “QVQLVESGGGLVQAGGSLRLSCAASGRIFFWYAMGWYRQAPGTERELVAGITSGGSTNYADSVKGRFTISRDNAKNTVYLQMNSLKPEDTAVYYCAKRSYRTHTYDYWGQGTQVTVSS”, the “polyreactivity (PSR sort gate)” value is “low polyreactivity”. “QVQLVESGGGLVQAGGSLRLSCAASGRIFFYNAMGWYRQAPGKERELVAGISRSGTSTYYADSVKGRFTISRDNAKNTVYLQMNSLKPEDTAVYYCAADAWSVILWREMDYWGQGTQVTVSS”: the “polyreactivity (PSR sort gate)” value was “low polyreactivity”. For “QVQLVESGGGLVQAGGSLRLSCAASGRIFFYYAMGWYRQAPGKERELVATISYSGGGTYYADSVKGRFTISRDNAKNTVYLQMNSLKPEDTAVYYCNARWGTPYYIQDFDYWGQGTQVTVSS” the value was “low polyreactivity”.

As to “QVQLVESGGGLVQAGGSLRLSCAASGRIFFYYVMGWYRQAPGKERELVAAITRSGGSTYYADSVKGRFTISRDNAKNTVYLQMNSLKPEDTAVYYCSVGDGFEYDWGQGTQVTVSS”, the “polyreactivity (PSR sort gate)” value is “low polyreactivity”. The result for “QVQLVESGGGLVQAGGSLRLSCAASGRIFGAYAMGWYRQAPGKERELVAAINRGGSTNYADSVKGRFTISRDNAKNTVYLQMNSLKPEDTAVYYCAKRSSGRHFTYDYWGQGTQVTVSS” reads “low polyreactivity”; that for “QVQLVESGGGLVQAGGSLRLSCAASGRIFGAYAMGWYRQAPGKERELVAAITSGGSTYYADSVKGRFTISRDNAKNTVYLQMNSLKPEDTAVYYCNALRRSQPWKYDYWGQGTQVTVSS”, “low polyreactivity”. Turning to “QVQLVESGGGLVQAGGSLRLSCAASGRIFGAYAMGWYRQAPGKERELVAAITSRGGNTYYADSVKGRFTISRDNAKNTVFLQMNSLKPEDTAVYYCAARHDTRRQYYVGQSAFDYWGQGTQVTVSS”, the “polyreactivity (PSR sort gate)” value was “low polyreactivity”. Turning to “QVQLVESGGGLVQAGGSLRLSCAASGRIFGAYAMGWYRQARGKERELVAAIDIRGGNTYYADSVKGRFTISRDNAKNTVYLQMNSLKPEDTAVYYCPADTWYDAYNYWGQGTQVTVSS”, the “polyreactivity (PSR sort gate)” value was “low polyreactivity”.

In the case of “QVQLVESGGGLVQAGGSLRLSCAASGRIFGDNAMGWYRQAPGKERELVAAITNRGGTTYYADSVKGRFTISRDNAKNTVYLQMNSLRPEDTAVYYCNKTPDRHRRYFGYGYWGQGTQVTVSS”, the “polyreactivity (PSR sort gate)” value was “low polyreactivity”.

On to “QVQLVESGGGLVQAGGSLRLSCAASGRIFGDNAMGWYRQAPGKERELVAGIRWRADRTYYADSVKGRFTISRDNAKNTVYLQMNSLKPEDTAVYYCNADVVRYRHWHRGDYWGQGTQVTVSS”, for which the “polyreactivity (PSR sort gate)” value is recorded as “low polyreactivity”.

Take “QVQLVESGGGLVQAGGSLRLSCAASGRIFGDYAMGWYRQAPGKERELVARITWSGTGTYYADSVKGRFTISRDNAKNTVYLQMNSLKPEDTAVYYCNADWQVQWYYYWGHGTQVTVSS”: the “polyreactivity (PSR sort gate)” value was “low polyreactivity”. The result for “QVQLVESGGGLVQAGGSLRLSCAASGRIFGENAMGGYRQAPGKEREFVAVISISDASTYYADSVKGRFTISRDNAKNTVYLQMNSLKPEDTAVYYCAADLTDFLYVASDYWGQGTQVTVSS” reads “low polyreactivity”. In the case of “QVQLVESGGGLVQAGGSLRLSCAASGRIFGENAMGWYRQAPGKERELVAAINSGGSTSYADSVKGRFTISRDNAKNTVYLQMNSLKPEDTAVYYCAADEIQGFYTHSFEYWGQGTQVTVSS”, the “polyreactivity (PSR sort gate)” value is “low polyreactivity”.

These data come from the nanobody polyreactivity screen of Harvey et al. (2022).
